Measurements: patent US20200339680A1 (Alector, published 2020)
Changes are numbered by the printed parent chain.

B1: TM-9 (antibody, V domains shown)
VH: EVQLVESGGDLVKPGGSLKLSCVASGFTFSGYGMSWVRQTPDKRLEWVATISSGSFYIYYPDSVKGRLTVSRDNAKNTLYLQMSSLKSEDTAIYYCARQNFYYGCEDYWGQGTTLTVSS
VL: DIVMTQAAFSNPVTLGTSASISCRSSKSLLHSNGITYLYWYLQKPGQSPQLLIYQMSNLASGVPNRFSSSGSGTDFTLRISRVEAEDVGVYYCAQNLELPWTFGGGTKLEIK
B2: TM-21 (antibody, V domains shown)
VH: EVQLVESGGGLVKPGGSLKLSCAASGFTFSNYAMSWVRETPEKRLEWVAFISDGGGYIYYADNVKDRFTISRDNAKNNLYLQMRHLKSEDTAMYYCARDGGTGFTYWGQGTLVTVSV
VL: B1 VL with Y39F, N65D, A94V, W101Y
B3: TM-18 (antibody, V domains shown)
VH: EVRLQQSGPELVKPGASVKISCKTSGYTFTDYYMNWVKQSHGKSLEWIVNINPNNGDAFYNQKFKGKATLTVDKSSNTAYLDLRSLTSEDSAVYYCAREGQLRLRRVYAMDYWGQGTSVTVSS
VL: DIVLAQSPASLAVSLGQRATISCRASKSVSISVYTYVHWYQQKPGQPPKLLIYLASNLESGVPARFSGSGSGTDFTLNIHPVEEEDAATYYCQHSRELPYTFGGGTKLEIK
B4: TM-10 (antibody, V domains shown)
VH: QVQLQQSGAELVKPGASVKISCKGSGYAFSSYWMNWVKQRPGKGLEWIGQIYPGDGDTNYNGKFKGKATLTADKSSTTAYIHLSSLTSEDSAVYFCARWGHYDEAMDDWGQGTSVTVSS
VL: DVVMTQTPLSLPVSLGDQASISCRSSQSLVHSNGKTYLHWYVQKPGQSPKLLIYKISNRFSGVPDRFSGSGSGTDFTLKISRVEAEDLGVYFCSQITHVPWTFGGGTKLESK
B5: TM-12 (antibody, V domains shown)
VH: EVQLQQSGAELMRPGASVKLSCTASGFNIQDYYMYWVKQRPEQGLEWIGRIDPEDGDAEYAPKFQGKATMTADTSSNTAYLQLSSLTSEDTAVYYCSTRVIYDGYYRTMDCWGQGTSVTVSS
VL: DVLMTQIPLSLPVSLGDQASISCRSSQTIVHSNGNTYLEWYLKKPGQSPKLLIDKISNRFSGVPDRFSGSGSGTDFTLKISRVEAEDLGVYYCFQGSHVPYTFGGGTKLEIK
B6: TM-22 (antibody, V domains shown)
VH: QVQLQQSGPELVKPGASVKISCKASGYRFTSYYIHWVKQRPGQGLEWIGWIYPGNGITNYNEKFKGKATLTADTSSSTAYMQLSSLTSEDSAVYYCASPYYGIRNCYFDVWGTGTTVTVSS
VL: B5 VL with I7T, Q18H, S26G, T28S, K43Q, D54Y, I56V, V90I, Y101W
B7: TM-19 (antibody, V domains shown)
VH: DVQLQQSGAELVRPGASVKLSCTASGFNIKDYYMYWVKQRPEQGLEWIGRIDPEDGDTENAPKFRGMATMTADTSSNTAYLQLNSLTSEDTAVYYCTTRIGNLYHVMDYWGHGTSVTVSS
VL: B5 VL with I7T, T28S, K43Q, S48A, I56V, S57F, Y101F, G105S
B8: TM-8 (antibody, V domains shown)
VH: QIQLVQSGPELKKPGETVKISCKASGYTFTDYPMHWVKQAPGKGFKWMGVIYTDTGEPKYAEVFKGRFAFSLETSASTAYLQINNLKNEDTATYFCVRRLAYWGQGTLVTVSA
VL: DIKMTQSPSSMYASLGERVTITCKASQDINSYLSWFQQKPGKSPKTLIFRANRLVDGVPSRFSGSGSGQDYSLTISSLEYEDMGIYYCLQYDEFPLTFGAGTKLEMK
notes: mouse IgG (hybridoma)
B9: TM-11 (antibody, V domains shown)
VH: QVQLKQSGPGQVQPSQSLSITCTVSGFSLSDYGVHWVRQSPGKGLEWLGVIWNNGNTDYNAAFISRLSINKDNSKSQVFFKMTSLQADDTAIYYCVRSLRPLHFDYWGQGTTVTVSS
VL: DIVMTQSPSSLTMSVGQKVTMHCKSSQSLLNSNNLQNYLAWYQQKPGQSPTLLVYFASIRESGVPDRFIGSGSGTDFTLTISSVQAEDLADYFCQQHYNTPFTFGSGTKLEIR
B10: TM-13 (antibody, V domains shown)
VH: QVQLQQSGAELVKPGASVKMSCKASGYTFTTFPIEWMKQSHGKGLEWIGNFHPYNDDTKYNEKFKGKATLTVDKSSSTVYLDLSRLTSDDSAVYYCARYFYGGMDYWGQGTSVTVSS
VL: DIQMTQSPASLSVSVGETVTITCRASENIYSSLGWYQQKQGESPQLLVFAATNLADGVPSRFSGSGSGTQYSLKINSLQSEDFGTYYCQHLWSIPWTFGGGTRLEIK
B11: TM-15 (antibody, V domains shown)
VH: QVQLQQPGAEFVRPGASVKLSCKASGYTFTNYWITWVKQRPGHGLEWIGDIYPGSGNSNYNESFKRKATLTVDTSSSTAYMHLSSQTSEDSAVYFCARKAYGGFPYWGQGTLVTVSA
VL: DIQMTQSPASLSVSVGETVTITCRVSENIYNNLAWYQQKQEKSPQLLVFAATNLADGVPSRFSGSGSGTQFSLKINSLQSEDFGTYYCQHFWDTPFTFGSGTKLEIK
notes: mouse IgG (hybridoma)
B12: TM-14 (antibody, V domains shown)
VH: QVQLQQSGPELVRPGTSVKVSCKASGYAFTNYLIEWVKQRPGQGLEWIGVINPGGGNTDYSEKFKDKATLTADKSSNTAYIQLSSLTSEDSAVYFCARSPYSSYVGYAVDYWGQGTSVTVSS
VL: DIQMTQSPSSLSASLGERVSLTCRASQDIGSNLNWLQQEPDGTIKRLIYATSSLDSGVPKRFSGSRSGSDYSLTISSLESEDFVVYYCLQYASSPRTFGGGTRLEIK
notes: mouse IgG (hybridoma)
B13: TM-17 (antibody, V domains shown)
VH: QVQLQQSGAELIRPGTSVKVSCKASGYAFTDYLIEWVKQRPGQGLEWIGVINPGSGGTNYNEKFKGKAKLTADKSSSTAYMQLSSLTSEDSAVYFCVRSSYGVYVAYPMDYWGQGTSVTVSS
VL: B12 VL with V85D, R103K

Molecular target: T1, human TMEM106B (human, UniProt Q9NUM4 2-274)
T1 construct: full-length, transiently expressed on HEK293 cells, or natively expressed on HeLa, U251 and A549 cells (the cell is named under assay); also the source of the Pepscan peptides; also called huTMEM106B; huTMEM
Assay: FACS A549;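 also: flow cytometry of cells incubated on ice for 1 h with hybridoma supernatant or purified antibody at 10 µg/mL, dead propidium iodide-positive cells gated out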
Description: (§1) All cells were cultured in either T75 or T150 flasks. […] The enzyme was quenched by addition of fresh media, and the cells were then distributed into 96-well plates for FACS analysis.
(§2) FACS analysis was performed as follows. Each cell type was aliquoted in 96-well round bottom plates (2×10^5 cells per well), washed once with FACS buffer (PBS+2% FBS+1 mM EDTA), and incubated with 50 μL of hybridoma supernatant or purified antibody (10 μg/ml in FACS buffer) on ice for 1 hour. […] Following this secondary incubation, the cells were again washed 2× with ice-cold FACS buffer and resuspended in a final volume of 50 μL of FACS buffer+0.25 μl/well propidium iodide (Fisher Scientific #4BDB556463). Analysis was performed on a FACSCanto system (BD Biosciences) or iQue (Intellicyt), with sort gates drawn to exclude dead (i.e., propidium iodide positive) cells.

Row | Binder | MFI [MFI]
1 | B1 | 1990
2 | B2 | 1030
3 | B3 | 1490
4 | B4 | 823
5 | B5 | 1940
6 | B6 | 1570
7 | B7 | 1820
8 | B8 | 554
9 | B9 | 1340
10 | B10 | 1260
11 | B11 | 938
12 | B12 | 896
13 | B13 | 953

Molecular target: T1, human TMEM106B
Assay: FACS HeLa
Description: as §1, §2

Row | Binder | MFI [MFI]
14 | B1 | 2540
15 | B2 | 1200
16 | B3 | 1920
17 | B4 | 596
18 | B5 | 2660
19 | B6 | 408
20 | B7 | 2430
21 | B8 | 568
22 | B9 | 1870
23 | B10 | 1380
24 | B11 | 660
25 | B12 | 307
26 | B13 | 437

Molecular target: T1, human TMEM106B
Assay: FACS U251
Description: as §1, §2

Row | Binder | MFI [MFI]
27 | B1 | 1540
28 | B2 | 672
29 | B3 | 874
30 | B4 | 328
31 | B5 | 1330
32 | B6 | 313
33 | B7 | 878
34 | B8 | 304
35 | B9 | 866
36 | B10 | 787
37 | B11 | 382
38 | B12 | 270
39 | B13 | 305

Molecular target: T2, mouse TMEM106B (mouse, UniProt Q80X71 2-275)
T2 construct: transiently expressed on HEK293 cells, or native on mouse Neuro2a cells; also called moTMEM106B; murine TMEM106B
Assay: FACS Neuro2a;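 also: flow cytometry of antibody binding to cells: hybridoma supernatant or purified antibody at 10 µg/ml, 1 h on ice, secondary detection, propidium iodide–positive dead cells gated out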
Description: as §1, §2

Row | Binder | MFI [MFI]
40 | B1 | 2710
41 | B2 | 706
42 | B3 | 1930
43 | B4 | 604
44 | B5 | 3040
45 | B6 | 400
46 | B7 | 2140
47 | B8 | 370
48 | B9 | 1040
49 | B10 | 927
50 | B11 | 470
51 | B12 | 300
52 | B13 | 385

Molecular target: T1, human TMEM106B
Assay: FACS A549 1 ug/ml
Description: (§3) Purified anti-TMEM106B antibodies were evaluated for their binding affinity to various TMEM106B-expressing cell lines including HEK293 transiently transfected with human/cyno/mouse TMEM106B, as well as HeLa cells and A549 cells. Antibodies tested for this experiment were mouse IgGs purified from hybridoma supernatant. Affinity binding to cells was determined as follows. Briefly, 1×10\hat{ }5 cells were aliquoted per well in 96-well round bottom plates and incubated with 50 μL of purified anti-TMEM106B antibody at various concentrations (10× dilutions starting at 10 μg/ml) in FACS buffer (PBS+2% FBS+1 mM EDTA). […] Sorting was performed on a iQue (Intellicyt), with sort gates drawn to exclude dead (propidium iodide+) cells. Binding data was analyzed using median fluorescent intensity (MFI) and graphed in Prism. Values presented are MFI.

Row | Binder | MFI [MFI]
53 | B1 | 4880
54 | B2 | 2030
55 | B3 | 2620
56 | B4 | 663
57 | B5 | 3150
58 | B6 | 399
59 | B7 | 3640
60 | B8 | 393
61 | B9 | 2870
62 | B10 | 1950
63 | B11 | 650
64 | B12 | 409
65 | B13 | 379

Molecular target: T1, human TMEM106B
Assay: FACS A549 10 ug/ml

Row | Binder | MFI [MFI]
66 | B1 | 7090
67 | B2 | 4230
68 | B3 | 5190
69 | B4 | 1090
70 | B5 | 4950
71 | B6 | 478
72 | B7 | 4960
73 | B8 | 492
74 | B9 | 5580
75 | B10 | 3890
76 | B11 | 1980
77 | B12 | 438
78 | B13 | 425

Molecular target: T1, human TMEM106B
Assay: FACS HEK+huTMEM 10 ug/ml;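 also: flow cytometric binding of purified mouse IgG antibodies to HEK293 cells transiently expressing human TMEM106B, read as median fluorescence intensity on live cells with propidium iodide-positive cells excluded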
Description: as §3

Row | Binder | MFI [MFI]
79 | B1 | 56400
80 | B2 | 69400
81 | B3 | 71700
82 | B4 | 36500
83 | B5 | 75300
84 | B6 | 3580
85 | B7 | 79000
86 | B8 | 465
87 | B9 | 57900
88 | B10 | 67500
89 | B11 | 63100
90 | B12 | 1190
91 | B13 | 3960

Molecular target: T1, human TMEM106B
Assay: FACS HEK+huTMEM 0.1 ug/ml;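 also: flow cytometry binding of purified mouse IgG antibodies to HEK293 cells transiently expressing TMEM106B, read as median fluorescence intensity on live cells (propidium iodide negative gating)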

Row | Binder | MFI [MFI]
92 | B1 | 28300
93 | B2 | 15600
94 | B3 | 10600
95 | B4 | 21000
96 | B5 | 19700
97 | B6 | 833
98 | B7 | 29800
99 | B8 | 305
100 | B9 | 16200
101 | B10 | 19100
102 | B11 | 2060
103 | B12 | 364
104 | B13 | 1910

Molecular target: T1, human TMEM106B
Assay: FACS HEK+huTMEM 1.0 ug/ml;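 also: binding of purified mouse IgG antibodies to HEK293 cells transiently expressing human TMEM106B, read by flow cytometry as median fluorescence intensity of live, propidium iodide-negative cells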
Description: as §3

Row | Binder | MFI [MFI]
105 | B1 | 62100
106 | B2 | 69400
107 | B3 | 67300
108 | B4 | 44400
109 | B5 | 77800
110 | B6 | 2100
111 | B7 | 66800
112 | B8 | 317
113 | B9 | 54600
114 | B10 | 67100
115 | B11 | 14300
116 | B12 | 680
117 | B13 | 2620

Molecular target: T1, human TMEM106B
Assay: FACS HEK+huTMEM 0.1 ug/ml (2nd column so headed);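 also: flow cytometry binding of purified anti-TMEM106B mouse IgG to HEK293 cells transiently transfected with TMEM106B, read as median fluorescence intensity on live (propidium iodide-negative) cells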

Row | Binder | MFI [MFI]
118 | B1 | 3940
119 | B2 | 2350
120 | B3 | 1740
121 | B4 | 3360
122 | B5 | 3340
123 | B6 | 500
124 | B7 | 3340
125 | B8 | 301
126 | B9 | 4280
127 | B10 | 2900
128 | B11 | 584
129 | B12 | 314
130 | B13 | 1150
